Experiments:
[1] = target: PfCSPm (PfCSP_SAmut_C5S), stabilized mutant form of PfCSP (Plasmodium falciparum) (UniProt Q7K740); experiment: ITC
[2] = target: PfCSPm (PfCSP_SAmut_C5S), stabilized mutant form of PfCSP (Plasmodium falciparum) (UniProt Q7K740); experiment: ITC, two-site model [lower table]
[3] = target: PfCSPm (PfCSP_SAmut_C5S), stabilized mutant form of PfCSP (Plasmodium falciparum) (UniProt Q7K740); experiment: ITC, two-site model
[4] = target: PfCSPm (PfCSP_SAmut_C5S), stabilized mutant form of PfCSP (Plasmodium falciparum) (UniProt Q7K740); experiment: ITC, antibody titrated into PfCSPm; first site
[5] = target: PfCSPm (PfCSP_SAmut_C5S), stabilized mutant form of PfCSP (Plasmodium falciparum) (UniProt Q7K740); experiment: ITC, antibody titrated into PfCSPm; second site
[6] = target: PfCSPm (PfCSP_SAmut_C5S), stabilized mutant form of PfCSP (Plasmodium falciparum) (UniProt Q7K740); experiment: ITC, antibody titrated into PfCSPm, pH 7.4, 25 C, two sets of sites; second site
[7] = target: PfCSPm (PfCSP_SAmut_C5S), stabilized mutant form of PfCSP (Plasmodium falciparum) (UniProt Q7K740); experiment: ITC, antibody titrated into PfCSPm, pH 7.4, 25 C, two sets of sites; first (junctional) site

Substance | Kd [1] [nM] | change in ΔG [1] [kcal/mol] | fold affinity increase over mature CIS43 [1] [fold] | -TΔS1 [2] [kcal/mol] | -TΔS2 [2] [kcal/mol] | ΔG1 [2] [kcal/mol] | ΔG2 [2] [kcal/mol] | ΔH1 [2] [kcal/mol] | ΔH2 [2] [kcal/mol] | -TΔS1 [3] [kcal/mol] | -TΔS2 [3] [kcal/mol] | ΔG1 [3] [kcal/mol] | ΔG2 [3] [kcal/mol] | ΔH1 [3] [kcal/mol] | ΔH2 [3] [kcal/mol] | stoichiometry [4] | stoichiometry [5] | Kd [6] [nM] | Kd [7] [nM]
mature CIS43 with L98I in the heavy chain (antibody) | 11 | 0.2 | 1.6 | 8.8 | -0.9 | -10.8 | -10.2 | -19.6 | -9.3 |  |  |  |  |  |  |  |  |  | 
mature CIS43 antibody (IgG) |  |  |  |  |  |  |  |  |  | 13.4 | 0.9 | -10.6 | -9.8 | -24 | -10.7 | 2.4 | 5.8 | 63 | 18

— patent US20250011406A1
